The experiment deals with T1, NMDARs (Rattus norvegicus, UniProt Q00959+Q00960).
T1 construct: TRPM2 plasmid a gift 17928; 17924; 17925; host or cells: HEK293T
As to the kind of experiment: NMDAR currents in HEK-293T cells transfected with NMDARs and TRPM2 (whole cell recording). The format is cell-based, human. To be noted: 10 μM peptide overnight; 10 μM NMDA, -80 mV. The protocol:
FIGS. 5G and 5H show the effects of TAT-EE3 on NMDAR currents in HEK-293T cells transfected with NMDARs and TRPM2. Transfected cells were treated with 10 μM TAT-EE3 or TAT-SC for overnight. FIG. 5G is representative NMDAR currents elicited at −80 mV by exposing to 10 μM NMDA for about 2 to 4 s.
were ordered from GenScript Biotech, and dissolved in PBS to make a stock concentration at 10 mM. HEK-293T cells or isolated neurons were treated with TAT-SC or TAT-EE3 at a concentration of 10 μM for at least 8 h prior to use. Mice were injected with TAT-SC or TAT-EE3 intraperitoneally (ip) at a dose of 100 nmol/kg.
Whole cell currents were recorded using an Axopatch 200B amplifier. Data were digitized at 10 or 20 kHz and digitally filtered offline at 1 kHz. Patch electrodes were pulled from borosilicate glass and fire-polished to a resistance of ˜3 MΩ when filled with internal solutions. Series resistance (Rs) was compensated up to 90% to reduce series resistance errors to <5 mV. Cells in which Rs was >10 MΩ were discarded (Du, J., Xie, J., and Yue, L. (2009). Modulation of TRPM2 by acidic pH and the underlying mechanisms for pH sensitivity. J Gen Physiol 134, 471-88).
For heterologous expression, transfected HEK-293 cells were identified by GFP fluorescence. […]

T1 sequence (Q00959 23-1464, other chains not shown): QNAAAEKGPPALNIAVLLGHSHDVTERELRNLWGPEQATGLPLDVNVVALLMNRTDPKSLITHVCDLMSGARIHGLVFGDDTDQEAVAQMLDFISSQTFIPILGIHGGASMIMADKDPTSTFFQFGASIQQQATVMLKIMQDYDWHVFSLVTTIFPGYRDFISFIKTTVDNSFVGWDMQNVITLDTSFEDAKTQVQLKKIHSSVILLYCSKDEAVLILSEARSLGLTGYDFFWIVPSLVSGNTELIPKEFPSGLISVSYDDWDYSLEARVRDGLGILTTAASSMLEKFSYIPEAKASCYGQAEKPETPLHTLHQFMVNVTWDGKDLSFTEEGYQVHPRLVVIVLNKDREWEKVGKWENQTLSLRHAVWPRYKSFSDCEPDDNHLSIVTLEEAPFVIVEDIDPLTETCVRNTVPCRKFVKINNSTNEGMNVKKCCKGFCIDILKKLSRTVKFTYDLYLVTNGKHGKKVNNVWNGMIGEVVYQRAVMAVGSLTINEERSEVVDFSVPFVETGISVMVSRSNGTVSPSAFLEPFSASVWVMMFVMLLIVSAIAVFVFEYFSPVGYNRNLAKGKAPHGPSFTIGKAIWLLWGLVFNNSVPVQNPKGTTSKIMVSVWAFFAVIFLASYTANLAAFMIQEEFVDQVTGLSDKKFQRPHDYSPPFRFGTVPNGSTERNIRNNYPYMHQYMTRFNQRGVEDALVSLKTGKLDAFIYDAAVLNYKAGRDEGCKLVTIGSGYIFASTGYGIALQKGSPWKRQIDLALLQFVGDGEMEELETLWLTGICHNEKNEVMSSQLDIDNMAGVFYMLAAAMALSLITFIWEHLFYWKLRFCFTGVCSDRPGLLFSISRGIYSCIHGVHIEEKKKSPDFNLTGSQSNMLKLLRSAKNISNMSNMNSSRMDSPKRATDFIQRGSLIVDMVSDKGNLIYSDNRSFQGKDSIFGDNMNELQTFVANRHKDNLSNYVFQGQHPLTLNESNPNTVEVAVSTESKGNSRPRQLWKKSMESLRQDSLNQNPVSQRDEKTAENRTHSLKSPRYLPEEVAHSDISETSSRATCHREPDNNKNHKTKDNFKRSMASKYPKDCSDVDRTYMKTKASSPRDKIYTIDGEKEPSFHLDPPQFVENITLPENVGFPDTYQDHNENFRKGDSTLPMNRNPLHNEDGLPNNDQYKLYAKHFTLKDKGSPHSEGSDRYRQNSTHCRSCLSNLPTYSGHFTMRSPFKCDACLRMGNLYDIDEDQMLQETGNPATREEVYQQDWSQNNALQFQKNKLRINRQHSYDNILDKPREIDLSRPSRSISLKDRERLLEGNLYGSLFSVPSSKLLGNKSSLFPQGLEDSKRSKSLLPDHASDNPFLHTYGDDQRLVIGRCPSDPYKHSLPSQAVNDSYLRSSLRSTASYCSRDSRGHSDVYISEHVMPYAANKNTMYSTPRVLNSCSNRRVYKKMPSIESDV
T1 sequence (Q00960 27-1482, other chains not shown): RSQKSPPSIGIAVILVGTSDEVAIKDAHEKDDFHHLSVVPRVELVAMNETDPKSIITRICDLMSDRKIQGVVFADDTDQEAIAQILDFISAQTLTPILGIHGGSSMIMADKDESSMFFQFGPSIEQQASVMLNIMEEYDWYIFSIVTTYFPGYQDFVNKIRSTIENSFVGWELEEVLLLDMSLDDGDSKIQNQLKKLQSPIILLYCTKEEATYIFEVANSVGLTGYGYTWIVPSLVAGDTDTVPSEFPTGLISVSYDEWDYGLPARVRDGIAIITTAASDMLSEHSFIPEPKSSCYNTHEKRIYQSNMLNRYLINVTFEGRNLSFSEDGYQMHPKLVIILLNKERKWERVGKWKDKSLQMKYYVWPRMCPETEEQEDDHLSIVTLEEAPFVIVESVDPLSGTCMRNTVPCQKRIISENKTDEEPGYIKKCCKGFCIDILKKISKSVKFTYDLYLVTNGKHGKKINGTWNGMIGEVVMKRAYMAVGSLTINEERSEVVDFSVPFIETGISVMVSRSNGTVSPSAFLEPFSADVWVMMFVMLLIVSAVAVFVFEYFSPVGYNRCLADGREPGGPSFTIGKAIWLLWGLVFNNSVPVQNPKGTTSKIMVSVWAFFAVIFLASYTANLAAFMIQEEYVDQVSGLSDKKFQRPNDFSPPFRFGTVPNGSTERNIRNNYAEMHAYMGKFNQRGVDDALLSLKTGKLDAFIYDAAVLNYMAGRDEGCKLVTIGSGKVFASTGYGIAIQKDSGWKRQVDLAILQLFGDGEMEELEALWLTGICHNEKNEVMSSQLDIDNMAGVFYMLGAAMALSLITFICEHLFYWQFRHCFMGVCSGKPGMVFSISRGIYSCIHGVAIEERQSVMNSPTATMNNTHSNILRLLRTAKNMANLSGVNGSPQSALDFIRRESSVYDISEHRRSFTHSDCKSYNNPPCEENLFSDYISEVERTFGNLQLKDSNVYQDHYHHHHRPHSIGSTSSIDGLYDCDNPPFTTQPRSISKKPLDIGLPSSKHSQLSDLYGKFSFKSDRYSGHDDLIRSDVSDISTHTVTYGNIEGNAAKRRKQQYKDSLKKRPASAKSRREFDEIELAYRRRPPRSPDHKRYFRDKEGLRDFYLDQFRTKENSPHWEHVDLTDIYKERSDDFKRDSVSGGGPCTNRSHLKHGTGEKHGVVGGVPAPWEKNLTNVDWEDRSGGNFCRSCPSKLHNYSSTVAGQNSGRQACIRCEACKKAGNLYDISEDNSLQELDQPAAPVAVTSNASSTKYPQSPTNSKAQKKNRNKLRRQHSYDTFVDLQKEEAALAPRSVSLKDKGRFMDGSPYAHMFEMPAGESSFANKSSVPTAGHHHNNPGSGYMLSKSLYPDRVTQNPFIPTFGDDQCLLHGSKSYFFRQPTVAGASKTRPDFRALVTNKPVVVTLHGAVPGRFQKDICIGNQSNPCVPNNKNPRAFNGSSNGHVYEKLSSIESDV

Turning to “TAT-EE3: membrane permeable disrupting peptide, sequence YGRKKRRQRRREEDTDSSEEMLALAEE (SEQ ID NO: 4)”, the NMDAR current amplitude entry is recorded as “significantly smaller than that in cells treated with TAT-SC”.
